1 molecule from patent publication US20040072188A1 (Biogen, published 2004) can be followed below.

The target of test [1] is T1, human TACI, full length, on transfected 293EBNA cells (CA336) (human, UniProt O14836 1-293).
T1 construct: whole, on cells; also called huTACI
T1 sequence (looked up): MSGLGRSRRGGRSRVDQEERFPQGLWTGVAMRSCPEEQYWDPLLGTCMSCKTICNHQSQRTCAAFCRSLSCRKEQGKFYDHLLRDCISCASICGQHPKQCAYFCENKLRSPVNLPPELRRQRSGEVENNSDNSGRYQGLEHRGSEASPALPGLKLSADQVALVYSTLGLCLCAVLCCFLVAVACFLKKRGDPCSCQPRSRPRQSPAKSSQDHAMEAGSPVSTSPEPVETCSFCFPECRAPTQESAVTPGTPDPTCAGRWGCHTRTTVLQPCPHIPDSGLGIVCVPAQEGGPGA
Kind of test: FACS on 293EBNA cells co-transfected with human TACI and GFP, 1 ug/ml myc-APRIL. An excerpt:
(§1) At 18-20 hr post-transfection, cells were detached, counted, and stained for FACS analysis similar to Example 5 with the following modifications. […] The cells were again washed, fixed with paraformaldehyde, and analyzed by FACS for GFP and PE positive cells.

For test [2], the target named is T2, human BAFF-R (JST576), full length, on cells (human, UniProt Q96RJ3 1-184).
T2 construct: also called pJST576 transfected cells; huBAFF-R
T2 sequence: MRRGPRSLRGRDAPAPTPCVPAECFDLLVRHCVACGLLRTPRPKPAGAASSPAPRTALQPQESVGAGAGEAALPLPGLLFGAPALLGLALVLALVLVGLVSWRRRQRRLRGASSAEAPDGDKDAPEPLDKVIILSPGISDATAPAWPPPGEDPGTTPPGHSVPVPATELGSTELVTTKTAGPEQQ
Briefly: FACS on 293EBNA cells co-transfected with pJST576 and GFP reporter; anti-murine APRIL mAb, biotinylated anti-rat IgG2b, SAV-PE.
Description: as §1

B1: murine recombinant soluble myc-APRIL (ligand, UniProt Q9D777 96-241, looked up)
chain: AVLTQKHKKKHSVLHLVPVNITSKADSDVTEVMWQPVLRRGRGLEAQGDIVRVWDTGIYLLYSQVLFHDVTFTMGQVVSREGQGRRETLFRCIRSMPSDPDRAYNSCYSAGVFHLHQGDIITVKIPRANAKLSLSPHGTFLGFVKL
notes: also called myc-muAPRIL; murine myc-APRIL; not shown: myc tag
B1: the binding result in test [1] is given as “binds”; in test [2], “no binding (tested: 1 ug/ml)”.
